Series [1] deals with Plasmodium vivax lactate dehydrogenase (PvLDH) (Plasmodium vivax, UniProt Q4PRK9 1-316). The series is described as follows: antibody-aptamer sandwich plasmon-enhanced fluorescence. The settings on record: protein: recombinant; chain copies: 4.
Series [2] deals with Plasmodium falciparum lactate dehydrogenase (PfLDH) (Plasmodium falciparum, UniProt Q76NM3 1-316). The series is described as follows: antibody-aptamer sandwich plasmon-enhanced fluorescence; PfLDH captured by anti-PLDH on AuNP array; spiked human blood; 0.1 uM aptamer; sandwich LOD 18 fM (not a Kd); association time constant 45 +/- 15 min; Aptamer step: PBS (10 mM NaCl, 10 mM NaH2PO4, 10 mM Na2HPO4, 1 mM MgCl2, pH 7.1), 0.1 uM Cy5-aptamer, 2 h in the dark; temperature not stated; analyte spiked in human blood. The settings on record: protein: recombinant; chain copies: 4; label: 5'-Cy5.

B1: malaria 2008s aptamer (ssDNA)
DNA: CTGGGCGGTAGAACCATAGTGACCCAGCCGTCTAC
For B1, the results for the binding result in series [1] and in series [2] were “no binding” and “binds”, respectively.

Values taken from article PMC7708447, “Ultrasensitive antibody-aptamer plasmonic biosensor for malaria biomarker detection in whole blood”.
